Data from US20090018029A1.

Experiments:
[1] = molecular target: hIFN receptor; experiment: BIAcore biosensor; orientation not stated
[2] = molecular target: human growth hormone receptor on IM-9 cells (human) (UniProt P10912); experiment: cell-based or functional assay
UniProt P10912, sequence (P10912 19-638): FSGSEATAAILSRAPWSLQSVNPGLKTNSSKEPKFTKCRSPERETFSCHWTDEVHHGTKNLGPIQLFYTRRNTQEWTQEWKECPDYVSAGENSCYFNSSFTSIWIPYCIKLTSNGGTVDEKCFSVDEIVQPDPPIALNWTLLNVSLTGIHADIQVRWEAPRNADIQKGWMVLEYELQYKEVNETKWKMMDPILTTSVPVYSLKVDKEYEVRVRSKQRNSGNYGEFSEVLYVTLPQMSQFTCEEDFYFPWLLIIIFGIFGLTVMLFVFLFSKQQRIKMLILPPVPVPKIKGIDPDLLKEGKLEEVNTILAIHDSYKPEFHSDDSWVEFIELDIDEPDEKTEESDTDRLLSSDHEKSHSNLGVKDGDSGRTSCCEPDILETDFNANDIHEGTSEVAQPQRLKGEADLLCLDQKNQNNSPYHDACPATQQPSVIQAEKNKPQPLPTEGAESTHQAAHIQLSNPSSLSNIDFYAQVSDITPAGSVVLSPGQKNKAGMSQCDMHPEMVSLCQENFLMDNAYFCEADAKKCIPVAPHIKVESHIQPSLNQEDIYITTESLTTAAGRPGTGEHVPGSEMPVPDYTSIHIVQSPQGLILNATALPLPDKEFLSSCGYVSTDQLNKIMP

| Substance | Kd [1] | EC50 of STAT5 phosphorylation in IM-9 cells (phospho-STAT5 MFI, flow cytometry) [2] |
| --- | --- | --- |
| C1S IFNa2A (from UniProt P01563 24-188) (ligand) | 11 nM | – |
| 6His-R125pAF IFNα2A (from UniProt P01563 24-188) (ligand) | 19 nM | – |
| 6His-R120pAF IFNα2A (from UniProt P01563 24-188) (ligand) | 4 nM | – |
| 6His-T106pAF IFNα2A (from UniProt P01563 24-188) (ligand) | 8 nM | – |
| 6His-K49pAF IFNα2A (from UniProt P01563 24-188) (ligand) | 10 nM | – |
| 6His-I100pAF IFNα2A (from UniProt P01563 24-188) (ligand) | 10 nM | – |
| 6His-Q48pAF IFNα2A (from UniProt P01563 24-188) (ligand) | 17 nM | – |
| 6His-E159pAF IFNα2A (from UniProt P01563 24-188) (ligand) | 3.5 nM | – |
| 6His-Y89pAF IFNα2A (from UniProt P01563 24-188) (ligand) | 9 nM | – |
| 6His-IFNα2A (from UniProt P01563 24-188) (ligand) | 6 nM | – |
| Sigma IFNαA (from UniProt P01563 24-188) (ligand) | 11 nM | – |
| 6His-R149pAF IFNα2A (from UniProt P01563 24-188) (ligand) | 75 nM | – |
| rat growth hormone, wild type (from UniProt P01244 27-216) (ligand) | – | > 200000 nM |
| 6His-F38S IFNα2A (from UniProt P01563 24-188) (ligand) | 42 nM | – |
| 6His-R12pAF IFNα2A (from UniProt P01563 24-188) (ligand) | 8 nM | – |
| 6His-K31pAF IFNα2A (from UniProt P01563 24-188) (ligand) | 52 nM | – |
| 6His-H34pAF IFNα2A (from UniProt P01563 24-188) (ligand) | 4 nM | – |
| 6His-E113pAF IFNα2A (from UniProt P01563 24-188) (ligand) | 19 nM | – |
| 6His-G37pAF IFNα2A (from UniProt P01563 24-188) (ligand) | 12 nM | – |
| 6His-E96pAF IFNα2A (from UniProt P01563 24-188) (ligand) | 12 nM | – |
| 6His-K134pAF IFNα2A (from UniProt P01563 24-188) (ligand) | 10 nM | – |
| 6His-L117pAF IFNα2A (from UniProt P01563 24-188) (ligand) | 8 nM | – |
| C1S E107pAF IFNα2A (from UniProt P01563 24-188) (ligand) | 9 nM | – |
| 6His-L110pAF IFNα2A (from UniProt P01563 24-188) (ligand) | 13 nM | – |
| 6His-P39pAF IFNα2A (from UniProt P01563 24-188) (ligand) | 17 nM | – |
| 6His-Y122S IFNα2A (from UniProt P01563 24-188) (ligand) | 300 nM | – |
| 6His-I24pAF IFNα2A (from UniProt P01563 24-188) (ligand) | 5 nM | – |
| 6His-F27pAF IFNα2A (from UniProt P01563 24-188) (ligand) | 8 nM | – |
| 6His-E107pAF IFNα2A (from UniProt P01563 24-188) (ligand) | 5 nM | – |
| 6His-P109pAF IFNα2A (from UniProt P01563 24-188) (ligand) | 17 nM | – |
